Earlier results, collected in US20260108469A1, “COMPOSITIONS COMPRISING WATER INSOLUBLE DRUGS AND METHODS OF PRODUCING AND USING SAME” (priority 2023, published 2026).

CVKRGLKLRHVRPRVTRMDV (cell penetrating peptide (CPP)) [20 amino acid cell penetrating peptide, DPV1047 with an added N-terminal Cys]
solubility in water (water): > 500 mg/mL

CCc1c2c(nc3ccc(O)cc13)-c1cc3c(c(=O)n1C2)COC(=O)[C@]3(O)CC [SN-38, 7-ethyl-10-hydroxycamptothecin]
solubility in water-based solutions: not soluble in water-based solutions
